Data on 7 molecules can be found in patent US20060121580A1 (CRUCELL HOLLAND B V, published 2006).

Changes are numbered by the printed parent chain.

The target in assay [1] is S318-510 fragment (amino acids 318-510 of the S protein of SARS-CoV Frankfurt 1), myc-His tagged (SARS-CoV strain Frankfurt 1, UniProt P59594 318-510). The assay can be described thus: IgG ELISA on S318-510 fragment. On the technique in general: In an ELISA, binding on a coated surface is turned into a signal by an enzyme label.
In assay [2] the target is S565 fragment (amino acids 1-565 of the S protein of SARS-CoV), myc-His tagged (SARS-CoV strain Frankfurt 1, UniProt P59594 14-565). The assay can be described thus: IgG ELISA on captured S565.
Assay [3] deals with full length S protein of SARS-CoV expressed on HEK293T cells (SARS-CoV strain Frankfurt 1, UniProt P59594 14-1255). Kind of assay: flow cytometry, 10 µg/ml IgG on transfected HEK293T cells.

B1: human monoclonal anti-SARS-CoV antibody 03-001 (antibody, V domains shown)
VH: EVQLVESGGGLVKPGGSLRLSCAASGFTFSGYSMNWVRQAPGKGLEWVSSISGGSTYYADSRKGRFTISRDNSKNTLYLQMNNLRAEDTAVYYCARHRFRHVFDYWGQGTLVTVSS
VL: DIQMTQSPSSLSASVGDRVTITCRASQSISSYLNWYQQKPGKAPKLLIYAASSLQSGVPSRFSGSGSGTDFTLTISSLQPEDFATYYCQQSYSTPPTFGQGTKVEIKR
With B1, the binding result in assay [1] is on record as “no binding”.

B2: human monoclonal anti-SARS-CoV antibody 03-013 (antibody, V domains shown)
VH: EVQLVESGGGLVQPGGSLRLSCAASGFTFSDHYMDWVRQAPGKGLEWVGRTRNKANSYTTEYAASVKGRFTISRDDSKNSLYLQMNSLKTEDTAVYYCAKGLTPLYFDYWGQGTLVTVSS
VL: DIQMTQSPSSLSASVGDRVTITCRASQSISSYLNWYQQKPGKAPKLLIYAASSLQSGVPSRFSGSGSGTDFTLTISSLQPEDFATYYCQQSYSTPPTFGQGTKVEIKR
With B2, the binding result in assay [1], in assay [2] and in assay [3] was “binds” throughout.

B3: human monoclonal anti-SARS-CoV antibody 03-014 (antibody, V domains shown)
VH: B2 VH with K100R, L102I, T103S, L105F
VL: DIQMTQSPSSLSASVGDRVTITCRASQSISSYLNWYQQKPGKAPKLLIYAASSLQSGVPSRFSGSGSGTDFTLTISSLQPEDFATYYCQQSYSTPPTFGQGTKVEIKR
In the case of B3, the binding result in assay [1] and in assay [2] was “binds” each time.

B4: human monoclonal anti-SARS-CoV antibody 03-002 (antibody, V domains shown)
VH: EVQLVESGGGLVKPGGSLRLSCAASGFTFSGYSMSWVRQAPGKGLEWVGRTRNKANSYTTEYAASVKGRFTISRDDSKNSLYLQMNSLKTEDTAVYYCARYYSRSLKAFDYWGQGTLVTVSS
VL: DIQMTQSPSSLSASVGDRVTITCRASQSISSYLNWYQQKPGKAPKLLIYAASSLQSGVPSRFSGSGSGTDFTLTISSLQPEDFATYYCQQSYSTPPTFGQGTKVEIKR
For B4, in assay [1], the binding result is given as “no binding”.

B5: human monoclonal anti-SARS-CoV antibody 03-006 (antibody, V domains shown)
VH: EVQLVESGGGLVQPGGSLRLSCAASGFTFSGYPMHWVRQAPGKGLEWVAVISYDGSNKYYADSVKGRFTISRDNSKNTLYLQMNSLRAEDTAVYYCAKDGSPRTPSFDYWGQGTLVTVSS
VL: DIQMTQSPHSLSASVGDRVTITCRASQGISNYLAWYQQKPGKVPKLLIYAASTLQSGVPSRFSGSGSGTDFTLTISSLQPEDVGVYYCQQRFRTPVTFGQGTKLEIKR
For the molecule B5, the binding result in assay [1], in assay [2] and in assay [3] was “binds” each time.

B6: human monoclonal anti-SARS-CoV antibody 03-015 (antibody, V domains shown)
VH: EVQLVESGGGVVRPGGSLRLSCAASGFTFDDYGMSWVRQAPGKGLEWVSGINWNGGSTGYADSVKGRFTISRDNAKNSLYLQMNSLRAEDTAVYYCARGLSLRPWGQGTLVTVSS
VL: SSELTQDPAESVALGQTVRITCQGDSLRSYYASWYQQKPGQAPVLVIYGKNNRPSGIPDRFSGSSSGNTASLTITGAQAEDEADYYCNSRDSSGNHVVFGGGTKLTVLG
As for B6, the binding result in assay [1] was “no binding”; in assay [2], “no binding”; in assay [3], “binds”.

B7: human monoclonal anti-SARS-CoV antibody 03-009 (antibody, V domains shown)
VH: EVQLVESGGGVVQPGRSLRLSCAASGFTFSDYPMNWVRQAPGKGLEWVSSISGSGGSTYYADSVKGRFTISRDNSKNTLYLQMNSLRAEDTAVYYCAKGLFMVTTYAFDYWGQGTLVTVSS
VL: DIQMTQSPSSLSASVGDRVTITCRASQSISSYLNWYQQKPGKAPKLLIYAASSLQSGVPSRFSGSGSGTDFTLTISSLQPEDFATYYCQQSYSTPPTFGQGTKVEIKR
Take B7: in assay [1], the binding result is listed as “no binding”.
